Laboratory results from patent US20050214219A1, “24p3 receptors and uses thereof” (priority 2003, published 2005).
Structures can show the parent of a compound that is named as a salt.

Legend:
[1] = system: HeLa/24p3R-L, HeLa/24p3R-S, or HeLa/X7 cells; assay: intracellular iron monitored by expression of iron-regulated genes ferritin and transferrin receptor 1; format: cell-based
Experimental: Experiments were performed to determine whether 24p3R expression would confer on cells the ability to deliver iron in a 24p3-dependent fashion. In these experiments, as well as those described below, three preparations of 24p3 were used: bacterially derived iron-loaded 24p3 (holo-24p3), bacterially derived iron-lacking 24p3 (apo-24p3), and conditioned medium (CM) from cytokine-deprived FL5.12 cells, which contains 24p3 (FL5.12-24p3). The three preparations of 24p3 were added to HeLa/24p3R-L, HeLa/24p3R-S, or HeLa/X7 cells, and, as a control, iron-containing transferrin (holo-transferrin) was added in parallel samples. To monitor intracellular iron concentration, the expression of two iron-regulated genes, ferritin and transferrin receptor 1 were examined.

24p3-mediated apoptosis = assay: ability of holo-transferrin to block 24p3-mediated apoptosis; format: cell-based
Excerpt: If the basis of 24p3-mediated apoptosis is in fact decreased intracellular iron concentration, then apoptosis should be prevented by iron delivery. To test this prediction, the ability of holo-transferrin to block 24p3-mediated apoptosis was examined.

[2] = system: calcein-loaded HeLa cells; assay: intracellular iron in living cells with iron-sensing dye calcein; format: cell-based; conditions: for calcein fluorescence (inverse to intracellular iron level): calcein-loaded HeLa cells expressing 24p3 receptor, FIG. 3
Experimental: In this particular example, intracellular iron levels were measured in living cells using the iron-sensing dye calcein. Calcein is a fluorescent, cell permeable dye. Because its fluorescence is quenched upon iron binding, calcein can be used to measure free (also called labile or chelatable) iron in living cells.

HIFIα and Nip3 = assay: expression of HIFIα and Nip3 (response to decreased intracellular iron); format: cell-based
Experimental: It is well established that iron chelators can induce apoptosis. […] To examine this possibility, the expression of two genes, HIFIα and Nip3, was analyzed. The two genes are unregulated in response to decreased intracellular iron concentration. As a control, cells were treated with the bacterial siderophore desferrioxamine (DFO), an iron chelator, and analyzed in parallel.

24p3R [3] = assay: Internalization assay of 32P-24p3; format: cell-based, murine
Experimental: HeLa cells constitutively expressing 24p3R were treated with ^32P-24p3 and at various time points cells were washed three times with PBS and incubated for 15 minutes in proteinase K, trypsin, and EDTA solution to remove the extracellular portion of the receptor. The dislodged cells were then collected and counted.
24p3 and other lipocalins are internalized following binding to their cell surface receptor. […] Thus, cells ectopically expressing 24p3R can be used as reagents for examining the function of 24p3 and 24p3R as well as in assays to identify compounds that affect expression or activity of a 24p3R or a 24p3 (e.g., 24p3 or NGAL).

[4] = system: 32D cells or 32D/BCR-ABL^p190 cells; assay: cellular ligand-uptake of fluorescently derivatized 24p3 by fluorescence microscopy; format: cell-based, mouse
Experimental: A cellular ligand-uptake experiment was performed in which 24p3 was fluorescently derivatized, added to 32D cells or 32D/BCR-ABL^p190 cells, and 24p3 internalization analyzed by fluorescence microscopy.

24p3R [5] = assay: ligand-cell binding of 32P-labeled 24p3 to HeLa cells ectopically expressing 24p3R; design: species or system murine
Excerpt: HeLa cells expressed only low levels of 24p3R. To perform functional experiments HeLa cell lines were derived that stably express recombinant N-terminal epitope-tagged derivatives of 24p3R-L and 24p3R-S (HeLa/24p3R-L and HeLa/24p3R-S) and, as a control, the empty expression vector (HeLa/X7). Immunoblot analysis confirmed expression of 24p3R in HeLa/24p3R-L and HeLa/24p3R-S cells.
To determine whether the ectopically expressed 24p3R was able to bind 24p3, a series of ligand-cell binding experiments were performed. […] Binding of ^32P-labeled 24p3 to HeLa/24p3R-L and HeLa/24p3R-S was saturable and blocked by the addition of an excess of unlabeled 24p3. […] Thus, ectopically expressed 24p3R can bind to 24p3.

[6] = system: HeLa/24p3R-L, HeLa/24p3R-S, or HeLa/X7 cells; assay: 24p3-dependent apoptosis by annexin V-FITC staining; format: cell-based; conditions: for apoptosis (annexin V-FITC staining; confirmed by PARP and caspase 3 cleavage): HeLa/24p3R-L and HeLa/24p3R-S cells
Experimental: To examine the ability of 24p3R to mediate 24p3-dependent apoptosis, different preparations of 24p3 were added to the three HeLa cell lines described above and apoptosis was analyzed by annexin V-FITC staining. […] Apoptosis was confirmed by analyzing proteolytic cleavage of PARP (poly(ADP-ribose)polymerase) and caspase 3.

[7] = system: HeLa/24p3R-L, HeLa/24p3R-S, or HeLa/X7 cells; assay: colorimetric determination of intracellular free (non-haem) iron concentration; format: cell-based
Experimental: Colorimetric determination of intracellular non-haem iron concentration was measured as described by Leardi et al., (1998, Br. J. Haematol., 102:746-752) with modifications. Briefly, cells were washed twice with ice-cold PBS and then lysed with lysis buffer (1% TRITON™-X100, 10% glycerol. 25 mM HEPES, pH 7.4, in PBS) and incubated with 0.3 N HCl. The proteins in the lysates were precipitated with 10% TCA (trichloroacetic acid) and centrifuged at 1200×g for 15 minutes. The lysates were then mixed with iron chromogen, FERROZINE® (Sigma) in iron buffer reagent (1.5% hydroxylamine HCl in acetate buffer, pH 4.5) and the absorbance was measured spectrophotometrically at 560 nm. The non-heme iron concentration was measured by interpolating the absorbance of each sample using preset iron standards (Sigma) and expressed as mg/dL.
To confirm the results disclosed above, a […] assay that directly measures free iron concentration was employed.

[8] = HeLa/24p3R-L and HeLa/24p3R-S cells

Sequence of 24p3R (as listed by the source): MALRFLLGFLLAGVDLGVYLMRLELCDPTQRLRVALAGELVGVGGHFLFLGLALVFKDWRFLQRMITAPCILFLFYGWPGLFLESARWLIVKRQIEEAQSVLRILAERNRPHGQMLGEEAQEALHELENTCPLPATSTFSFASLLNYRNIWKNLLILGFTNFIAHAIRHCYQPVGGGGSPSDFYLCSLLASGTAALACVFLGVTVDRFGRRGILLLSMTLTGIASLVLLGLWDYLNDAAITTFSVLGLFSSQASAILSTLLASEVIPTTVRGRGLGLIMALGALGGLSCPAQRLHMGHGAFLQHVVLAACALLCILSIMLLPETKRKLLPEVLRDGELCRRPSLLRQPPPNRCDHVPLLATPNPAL

**Q.** With “holo-transferrin: iron-containing transferrin, used as control [reference compound]” as the molecule, how does the “intracellular iron concentration (ferritin / transferrin receptor 1 expression)” value ([1]; all three HeLa cell lines) read?
**A.** increased iron concentration

**Q.** And the levels of ferritin ([1]; all three HeLa cell lines)?
**A.** increased levels of ferritin

**Q.** And the “levels of transferrin receptor 1” value ([1]; all three HeLa cell lines)?
**A.** decreased levels of transferrin receptor 1

**Q.** And the “effect on apoptosis by 24p3” value (24p3-mediated apoptosis)?
**A.** blocked apoptosis by 24p3

**Q.** And the “effect on apoptosis induced by other agents” value (24p3-mediated apoptosis; apoptosis induced by etoposide or staurosporine)?
**A.** had no effect

**Q.** For `CC(=O)N(O)CCCCCNC(=O)CCC(=O)N(O)CCCCCNC(=O)CCC(=O)N(O)CCCCCN` [DFO, deferoxamine mesylate, reference compound], which “calcein fluorescence (inverse to intracellular iron level)” value [2] is on record?
**A.** large increase in fluorescence emission

**Q.** What about the “intracellular iron levels (calcein)” value ([2]; control HeLa cells (HeLa/X7)) of the same molecule?
**A.** altered iron levels

**Q.** What about the “expression of HIFIα and Nip3” value (HIFIα and Nip3; all three HeLa cell lines) of the same molecule?
**A.** induced expression of HIFIα and Nip3

B1: 24p3: recombinant mouse lipocalin 24p3, ligand of 24p3R; used 32P-labeled or fluorescently derivatized (protein)
chain: QDSTQNLIPAPSLLTVPLQPDFRSDQFRGRWYVVGLAGNAVQKKTEGSFTMYSTIYELQENNSYNVTSILVRDQDQGCRYWIRTFVPSSRAGQFTLGNMHRYPQVQSYNVQVATTDYNQFAMVFFRKTSENKQYFKITLYGRTKELSPELKERFTRFAKSLGLKDDNIIFSVPTDQCIDN
**Q.** For B1, which “internalization of 32P-labeled 24p3” value (24p3R [3]; [8]) is on record?
**A.** internalized by HeLa/24p3R-L and HeLa/24p3R-S cells

**Q.** And the “internalization of 32P-labeled 24p3” value (24p3R [3]; HeLa/X7 cells)?
**A.** not by HeLa/X7 cells

**Q.** What about the “internalization of fluorescently labeled 24p3” value ([4]; 32D cells) of the same molecule?
**A.** internalized

**Q.** And the “internalization of fluorescently labeled 24p3” value ([4]; 32D/BCR-ABL^p190 cells)?
**A.** not 32D/BCR-ABL^p190 cells

**Q.** What about the “binding of 32P-labeled 24p3 to cells” value (24p3R [5]; [8]) of the same molecule?
**A.** bound to HeLa/24p3R-L and HeLa/24p3R-S cells

**Q.** What about the “binding of 32P-labeled 24p3 to cells” value (24p3R [5]; HeLa/X7 cells (empty vector control)) of the same molecule?
**A.** not to HeLa/X7 cells

B2: apo-24p3: bacterially derived iron-lacking 24p3 (protein)
chain: QDSTQNLIPAPSLLTVPLQPDFRSDQFRGRWYVVGLAGNAVQKKTEGSFTMYSTIYELQENNSYNVTSILVRDQDQGCRYWIRTFVPSSRAGQFTLGNMHRYPQVQSYNVQVATTDYNQFAMVFFRKTSENKQYFKITLYGRTKELSPELKERFTRFAKSLGLKDDNIIFSVPTDQCIDN
**Q.** How did the “apoptosis (annexin V-FITC staining; confirmed by PARP and caspase 3 cleavage)” value [6] turn out when B2 was run?
**A.** induced apoptosis

**Q.** And the “apoptosis (annexin V-FITC staining)” value ([6]; HeLa/X7 cells)?
**A.** not in HeLa/X7 cells

**Q.** And the “free iron concentration (colorimetric assay)” value [7, 8]?
**A.** substantially reduced free iron concentration

**Q.** What about the “intracellular iron concentration (ferritin / transferrin receptor 1 expression)” value ([1]; all three HeLa cell lines) of the same molecule?
**A.** did not increase intracellular iron

**Q.** And the “calcein fluorescence (inverse to intracellular iron level)” value [2]?
**A.** large increase in fluorescence emission

**Q.** What about the “HIFIα levels and Nip3 transcription” value (HIFIα and Nip3; HeLa/24p3R-S cells) of the same molecule?
**A.** increased HIFα levels and Nip3 transcription

B3: holo-24p3: bacterially derived iron-loaded 24p3 (protein)
chain: QDSTQNLIPAPSLLTVPLQPDFRSDQFRGRWYVVGLAGNAVQKKTEGSFTMYSTIYELQENNSYNVTSILVRDQDQGCRYWIRTFVPSSRAGQFTLGNMHRYPQVQSYNVQVATTDYNQFAMVFFRKTSENKQYFKITLYGRTKELSPELKERFTRFAKSLGLKDDNIIFSVPTDQCIDN
**Q.** Which results are given for B3?
**A.** apoptosis (annexin V-FITC staining; confirmed by PARP and caspase 3 cleavage) [6]: failed to induce apoptosis; free iron concentration (colorimetric assay) [7, 8]: increased intracellular iron; free iron concentration (colorimetric assay) ([7]; HeLa/X7 cells): not in HeLa/X7 cells; intracellular iron concentration (ferritin / transferrin receptor 1 expression) [1, 8]: increased intracellular iron concentration; intracellular iron concentration (ferritin / transferrin receptor 1 expression) ([1]; HeLa/X7 cells): not in HeLa/X7 cells; calcein fluorescence (inverse to intracellular iron level) [2]: decrease in fluorescence intensity
